Measured values as given in US20090130195A1 (UNIVERSITY OF SOUTH FLORIDA, published 2009).

Biological target: T1, protein kinase C-iota (PKC-ι) (human, UniProt P41743 2-596)
T1 construct: Endogenous protein immunoprecipitated or blotted from cell lysates; also called PKC-i
T1 sequence (looked up): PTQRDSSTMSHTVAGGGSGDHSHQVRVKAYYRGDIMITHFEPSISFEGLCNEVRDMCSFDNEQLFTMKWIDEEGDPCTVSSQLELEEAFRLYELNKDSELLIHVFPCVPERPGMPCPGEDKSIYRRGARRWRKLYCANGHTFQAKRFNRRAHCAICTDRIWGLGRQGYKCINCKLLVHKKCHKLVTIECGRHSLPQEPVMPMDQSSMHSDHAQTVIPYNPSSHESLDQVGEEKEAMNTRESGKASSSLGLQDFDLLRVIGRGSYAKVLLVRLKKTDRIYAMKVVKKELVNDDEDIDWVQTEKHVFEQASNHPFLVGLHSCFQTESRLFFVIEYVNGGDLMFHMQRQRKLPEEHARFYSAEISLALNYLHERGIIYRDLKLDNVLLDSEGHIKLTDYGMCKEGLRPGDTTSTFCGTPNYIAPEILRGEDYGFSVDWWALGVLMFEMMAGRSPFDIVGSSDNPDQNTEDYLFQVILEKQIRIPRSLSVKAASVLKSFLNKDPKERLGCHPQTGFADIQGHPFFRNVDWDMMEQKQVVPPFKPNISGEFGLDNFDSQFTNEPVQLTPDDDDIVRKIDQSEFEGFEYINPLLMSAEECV
Experiment: Immunoprecipitation of Bad (200 µg protein) from RWPE-1 and DU-145 cells treated with control siRNA or PKC-ι siRNA, then immunoblot
Procedure: PKC-ι is overexpressed in non-small cell lung cancer cells (NSCLC) and it has been reported to phosphorylate Bad at multiple sites for cell survival. To test whether PKC-ι can directly phosphorylate endogenous Bad, Bad protein (200 μg) was immunoprecipitated from control siRNA and PKC-ι siRNA treated (incubation time 24 h) RWPE-1 and DU-145 cells. Normal rabbit IgG agarose conjugate (5 μg) was used as a negative control.
A similar experiment was performed with DU-145 (FIG. 8A, third column). First, we investigated if PKC-ι associates with Bad. […] However, we observed an increase in phosphorylation of Bad ser-112, no significant changes in p-Bad (ser-136) and p-Bad (ser-155).

binding result: no binding
B1: Bad (other, UniProt Q92934 1-168, looked up)
chain: MFQIPEFEPSEQEDSSSAERGLGPSPAGDGPSGSGKHHRQAPGLLWDASHQQEQPTSSSHHGGAGAVEIRSRHSSYPAGTEDDEGMGEEPSPFRGRSRSAPPNLWAAQRYGRELRRMSDEFVDSFKKGLPRPKSAGTATQMRQSSSWTRVFQSWWDRNLGRGSSAPSQ
notes: Endogenous protein from human prostate cell lines; Its phosphorylation (ser-112, ser-136, ser-155) varies with cell line and treatment; also called Bad protein
